Measurements published in patent US20050123920A1.

Columns and labels:
[1] = target: human Jade-1 protein (human); assay: estimate based upon co-localization data (immunofluorescence)
[2] = target: human Jade-1 protein (human); assay: cell-based or functional assay
[3] = target: FL-Jade-1 (tagged library clone, transfected) (human); assay: co-immunoprecipitation of cotransfected proteins
HA-VHL = HA-VHL (UniProt P40337); assay: co-immunoprecipitation of cotransfected proteins
Sequence of UniProt P40337 (P40337 whole entry): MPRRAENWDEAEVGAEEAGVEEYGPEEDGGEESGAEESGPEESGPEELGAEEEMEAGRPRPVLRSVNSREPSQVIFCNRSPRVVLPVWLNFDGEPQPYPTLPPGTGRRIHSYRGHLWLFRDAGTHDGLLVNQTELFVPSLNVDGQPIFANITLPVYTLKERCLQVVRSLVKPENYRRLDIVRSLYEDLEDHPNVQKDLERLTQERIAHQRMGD

von Hippel-Lindau (VHL) protein, wild-type human (from UniProt P40337 1-213)
percent of VHL that associates with Jade-1 [1]: < 10%
endogenous Jade-1 protein half-life in VHL-plus 786-O renal cancer cells (~40 minutes in VHL-minus cells), metabolic labeling [2]: 1 h
half-life of Jade-1 transiently transfected with VHL (data not shown) [2]: 1.5 h
increase of Jade-1 protein half-life with cotransfected VHL in 293 cells, pulse-chase [2]: 2 fold

HA-VHL (from UniProt P40337 1-213)
percent of VHL in the cell lysate immunoprecipitable with Jade-1 (vice-versa) [3]: 30 to 40%

FL-Jade-1 (tagged library clone, transfected)
percent of Jade-1 in the cell lysate immunoprecipitable with VHL (HA-VHL): 30 to 40%
